Where “and” joins values, the source holds several entries; their conditions need not be identical. Equal values may be shown once.
Experiments:
[1] = target: T1, human CD3 on Jurkat cells (human, UniProt P07766 23-207; P04234 22-171; P09693 23-182); test: FACS, Jurkat cells;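 note: flow cytometric binding of bispecific antibodies to Jurkat T cells, threefold serial dilutions incubated half an hour in the cold, EC50 taken from the fitted binding curve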
T1 construct: whole, on cells; CD3 complex as on Jurkat (Clone E6-1) cells; also called CD3 expressing cells (Jurkat)

[2] = target: T2, human CD3ε/δ (ACRO systems, CDD-H52W1) (human, UniProt P07766 23-126; P04234 22-105); test: BLI, antibody captured, antigen in solution;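 note: bispecific antibodies captured on AHIC biosensors to a 1.5 nm loading signal, in PBST with 0.02% detergent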
T2 construct: Bought protein; also called human CD3ϵ/CD3δ; human CD3 epsilon/delta antigen
Description: The bispecific antibodies were diluted to 5 ag/ml, and 1.5 nm protein was coupled to the surface of the AHIC sensor chip through 0.02% PBST.

B1: Knob-CEA+Fab-Hole (105) (bispecific antibody, human IgG4 S228P, kappa, F234A L235A)
chain: ESKYGPPCPPCPAPEAAGGPSVFLFPPKPKDTLMISRTPEVTCVVVDVSQEDPEVQFNWYVDGVEVHNAKTKPREEQFNSTYRVVSVLTVLHQDWLNGKEYKCKVSNKGLPSSIEKTISKAKGQPREPQVYTLPPCQEEMTKNQVSLWCLVKGFYPSDIAVEWESNGQPENNYKTTPPVLDSDGSFFLYSRLTVDKSRWQEGNVFSCSVMHEALHNHYTQKSLSLSLGGGGSGGGGSEVQLVESGGGFVQAGESLTLSCTSSTLTFTPYRMAWYRQAPGKQRDLVADISSGDGRTTNYADFAKGRFTISRDNIKNTVFLRMTNLKPEDTAVYYCNTFVSFVGIARSWGQGTQVTVSS
heavy: EVKLLESGGGLVQPKGSLKLSCAASGFTFNTYAMNWVRQAPGKGLEWVARIRSKYNNYATYYADSVKDRFTISRDDSQSILYLQMNNLKTEDTAMYYCVRHGNFGNSYVSWFAYWGQGTLVTVSSASTKGPSVFPLAPCSRSTSESTAALGCLVKDYFPEPVTVSWNSGALTSGVHTFPAVLQSSGLYSLSSVVTVPSSSLGTKTYTCNVDHKPSNTKVDKRVESKYGPPCPPCPAPEAAGGPSVFLFPPKPKDTLMISRTPEVTCVVVDVSQEDPEVQFNWYVDGVEVHNAKTKPREEQFNSTYRVVSVLTVLHQDWLNGKEYKCKVSNKGLPSSIEKTISKAKGQPREPQVCTLPPSQEEMTKNQVSLSCAVKGFYPSDIAVEWESNGQPENNYKTTPPVLDSDGSFFLVSRLTVDKSRWQEGNVFSCSVMHEALHNRFTQKSLSLSL
light: QAVVTQESALTTSPGETVTLTCRSSTGAVTTSNYANWVQEKPDHLFTGLIGGTNKRAPGVPARFSGSLIGDKAALTITGAQTEDEAIYFCALWYSNLWVFGGGTKVEIKRTVAAPSVFIFPPSDEQLKSGTASVVCLLNNFYPREAKVQWKVDNALQSGNSQESVTEQDSKDSTYSLSSTLTLSKADYEKHKVYACEVTHQGLSSPVTKSFNRGEC
notes: Anti-CD3 TA1 Fab + anti-CEA VHH C17 on human IgG4 knob-into-hole Fc
With B1 the EC50 [1] was 0.85 µg/mL and 6.54 nM, the Kd [2] was 0.696 nM and the koff [2] was 0.000256 s⁻¹. The kon [2] was 367000 M⁻¹ s⁻¹.

B2: Knob+Fab-Hole-CEA (106) (bispecific antibody, human IgG4 S228P, kappa, F234A L235A)
chain: ESKYGPPCPPCPAPEAAGGPSVFLFPPKPKDTLMISRTPEVTCVVVDVSQEDPEVQFNWYVDGVEVHNAKTKPREEQFNSTYRVVSVLTVLHQDWLNGKEYKCKVSNKGLPSSIEKTISKAKGQPREPQVYTLPPCQEEMTKNQVSLWCLVKGFYPSDIAVEWESNGQPENNYKTTPPVLDSDGSFFLYSRLTVDKSRWQEGNVFSCSVMHEALHNHYTQKSLSLSL
heavy: EVKLLESGGGLVQPKGSLKLSCAASGFTFNTYAMNWVRQAPGKGLEWVARIRSKYNNYATYYADSVKDRFTISRDDSQSILYLQMNNLKTEDTAMYYCVRHGNFGNSYVSWFAYWGQGTLVTVSSASTKGPSVFPLAPCSRSTSESTAALGCLVKDYFPEPVTVSWNSGALTSGVHTFPAVLQSSGLYSLSSVVTVPSSSLGTKTYTCNVDHKPSNTKVDKRVESKYGPPCPPCPAPEAAGGPSVFLFPPKPKDTLMISRTPEVTCVVVDVSQEDPEVQFNWYVDGVEVHNAKTKPREEQFNSTYRVVSVLTVLHQDWLNGKEYKCKVSNKGLPSSIEKTISKAKGQPREPQVCTLPPSQEEMTKNQVSLSCAVKGFYPSDIAVEWESNGQPENNYKTTPPVLDSDGSFFLVSRLTVDKSRWQEGNVFSCSVMHEALHNRFTQKSLSLSLGGGGSGGGGSEVQLVESGGGFVQAGESLTLSCTSSTLTFTPYRMAWYRQAPGKQRDLVADISSGDGRTTNYADFAKGRFTISRDNIKNTVFLRMTNLKPEDTAVYYCNTFVSFVGIARSWGQGTQVTVSS
light: QAVVTQESALTTSPGETVTLTCRSSTGAVTTSNYANWVQEKPDHLFTGLIGGTNKRAPGVPARFSGSLIGDKAALTITGAQTEDEAIYFCALWYSNLWVFGGGTKVEIKRTVAAPSVFIFPPSDEQLKSGTASVVCLLNNFYPREAKVQWKVDNALQSGNSQESVTEQDSKDSTYSLSSTLTLSKADYEKHKVYACEVTHQGLSSPVTKSFNRGEC
notes: as for B1
With B2 the EC50 [1] was 0.69 µg/mL and 5.31 nM, the Kd [2] was 0.589 nM and the koff [2] was 0.000215 s⁻¹. For the same binder, the kon [2] was 366000 M⁻¹ s⁻¹.

B3: CEA-Fab-Knob-+Hole (205) (bispecific antibody, human IgG4 S228P, kappa, F234A L235A)
heavy: EVQLVESGGGFVQAGESLTLSCTSSTLTFTPYRMAWYRQAPGKQRDLVADISSGDGRTTNYADFAKGRFTISRDNIKNTVFLRMTNLKPEDTAVYYCNTFVSFVGIARSWGQGTQVTVSSGGGGSGGGGSEVKLLESGGGLVQPKGSLKLSCAASGFTFNTYAMNWVRQAPGKGLEWVARIRSKYNNYATYYADSVKDRFTISRDDSQSILYLQMNNLKTEDTAMYYCVRHGNFGNSYVSWFAYWGQGTLVTVSSASTKGPSVFPLAPCSRSTSESTAALGCLVKDYFPEPVTVSWNSGALTSGVHTFPAVLQSSGLYSLSSVVTVPSSSLGTKTYTCNVDHKPSNTKVDKRVESKYGPPCPPCPAPEAAGGPSVFLFPPKPKDTLMISRTPEVTCVVVDVSQEDPEVQFNWYVDGVEVHNAKTKPREEQFNSTYRVVSVLTVLHQDWLNGKEYKCKVSNKGLPSSIEKTISKAKGQPREPQVYTLPPCQEEMTKNQVSLWCLVKGFYPSDIAVEWESNGQPENNYKTTPPVLDSDGSFFLYSRLTVDKSRWQEGNVFSCSVMHEALHNHYTQKSLSLSL
chain: ESKYGPPCPPCPAPEAAGGPSVFLFPPKPKDTLMISRTPEVTCVVVDVSQEDPEVQFNWYVDGVEVHNAKTKPREEQFNSTYRVVSVLTVLHQDWLNGKEYKCKVSNKGLPSSIEKTISKAKGQPREPQVCTLPPSQEEMTKNQVSLSCAVKGFYPSDIAVEWESNGQPENNYKTTPPVLDSDGSFFLVSRLTVDKSRWQEGNVFSCSVMHEALHNRFTQKSLSLSL
light: QAVVTQESALTTSPGETVTLTCRSSTGAVTTSNYANWVQEKPDHLFTGLIGGTNKRAPGVPARFSGSLIGDKAALTITGAQTEDEAIYFCALWYSNLWVFGGGTKVEIKRTVAAPSVFIFPPSDEQLKSGTASVVCLLNNFYPREAKVQWKVDNALQSGNSQESVTEQDSKDSTYSLSSTLTLSKADYEKHKVYACEVTHQGLSSPVTKSFNRGEC
notes: VHH linked to the VH of the Fab; human IgG4 knob-into-hole Fc
B3 was tested, and the EC50 [1] was 0.195 µg/mL and 1.5 nM, the Kd [2] was 2.38 nM and the koff [2] was 0.000666 s⁻¹. It also gave a kon [2] of 279000 M⁻¹ s⁻¹.

B4: 305 (TA6), configuration of FIG. 1W (bispecific antibody, IgG4)
heavy: EVQLVQSGAEVKKPGASVKVSCKASGYTFTNYYIHWVRQAPGQGLEWIGWIYPGDGNTKYNEKFKGRATLTADTSTSTAYLELSSLRSEDTAVYYCARDSYSNYYFDYWGQGTLVTVSSASTKGPSVFPLAPCSRSTSESTAALGCLVKDYFPEPVTVSWNSGALTSGVHTFPAVLQSSGLYSLSSVVTVPSSSLGTKTYTCNVDHKPSNTKVDKRVESKYGPPCPPCPAPEAAGGPSVFLFPPKPKDTLMISRTPEVTCVVVDVSQEDPEVQFNWYVDGVEVHNAKTKPREEQFNSTYRVVSVLTVLHQDWLNGKEYKCKVSNKGLPSSIEKTISKAKGQPREPQVYTLPPCQEEMTKNQVSLWCLVKGFYPSDIAVEWESNGQPENNYKTTPPVLDSDGSFFLYSRLTVDKSRWQEGNVFSCSVMHEALHNHYTQKSLSLSL
chain: EVQLVESGGGFVQAGESLTLSCTSSTLTFTPYRMAWYRQAPGKQRDLVADISSGDGRTTNYADFAKGRFTISRDNIKNTVFLRMTNLKPEDTAVYYCNTFVSFVGIARSWGQGTQVTVSSESKYGPPCPPCPAPEAAGGPSVFLFPPKPKDTLMISRTPEVTCVVVDVSQEDPEVQFNWYVDGVEVHNAKTKPREEQFNSTYRVVSVLTVLHQDWLNGKEYKCKVSNKGLPSSIEKTISKAKGQPREPQVCTLPPSQEEMTKNQVSLSCAVKGFYPSDIAVEWESNGQPENNYKTTPPVLDSDGSFFLVSRLTVDKSRWQEGNVFSCSVMHEALHNRFTQKSLSLSL
light: DIVMTQSPDSLAVSLGERATINCKSSQSLLNSRTRKNYLAWYQQKPGQPPKLLIYWASTRESGVPDRFSGSGSGTDFTLTISSLQAEDVAVYYCTQSFILRTFGQGTKVEIK
notes: chains put together from VH/VL, CH1, knob-Fc; IgG4, kappa; also called CEA-CD3 bispecific antibody 305; not shown: kappa light chain constant domain (CL)
B4 was tested, and the EC50 [1] was 0.267 µg/mL and 2.05 nM, the Kd [2] was 2.85 nM and the koff [2] was 0.00087 s⁻¹. It also gave a kon [2] of 324000 M⁻¹ s⁻¹.
